Values quoted from earlier work as cited in patent publication US6446032B1, “Designing compounds specifically inhibiting ribonucleic acid by binding to the minor groove” (Massachusetts Institute of Technology, priority 1990, dated 2002).

Tested on: normal cells as well as tumor cells
Conditions: binds and cleaves all rRNAs

B1: Alpha-sarcin: cytotoxic protein with potent antisarcoma activity, isolated from a mold, that inactivates ribosomes by cleaving the rRNA (protein, UniProt P00655 28-177, looked up)
Ribonuclease alpha-sarcin: AVTWTCLNDQKNPKTNKYETKRLLYNQNKAESNSHHAPLSDGKTGSSYPHWFTNGYDGDGKLPKGRTPIKFGKSDCDRPPKHSKDGNGKTDHYLLEFPTFPDGHDYKFDSKKPKENPGPARVIYTYPNKVFCGIIAHTKENQGELKLCSH
- toxicity to cells: highly toxic to normal cells as well as tumor cells
